In this assay the target is YFP-CaM (human, UniProt P0DP23 2-149). Briefly: BRET titration curves in live HEK293T cells.

B1: TRPV1-Luc (receptor)
chain: MKKWSSTDLGAAADPLQKDTCPDPLDGDPNSRPPPAKPQLSTAKSRTRLFGKGDSEEAFPVDCPHEEGELDSCPTITVSPVITIQRPGDGPTGARLLSQDSVAASTEKTLRLYDRRSIFEAVAQNNCQDLESLLLFLQKSKKHLTDNEFKDPETGKTCLLKAMLNLHDGQNTTIPLLLEIARQTDSLKELVNASYTDSYYKGQTALHIAIERRNMALVTLLVENGADVQAAAHGDFFKKTKGRPGFYFGELPLSLAACTNQLGIVKFLLQNSWQTADISARDSVGNTVLHALVEVADNTADNTKFVTSMYNEILMLGAKLHPTLKLEELTNKKGMTPLALAAGTGKIGVLAYILQREIQEPECRHLSRKFTEWAYGPVHSSLYDLSCIDTCEKNSVLEVIAYSSSETPNRHDMLLVEPLNRLLQDKWDRFVKRIFYFNFLVYCLYMIIFTMAAYYRPVDGLPPFKMEKTGDYFRVTGEILSVLGGVYFFFRGIQYFLQRRPSMKTLFVDSYSEMLFFLQSLFMLATVVLYFSHLKEYVASMVFSLALGWTNMLYYTRGFQQMGIYAVMIEKMILRDLCRFMFVYIVFLFGFSTAVVTLIEDGKNDSLPSESTSHRWRGPACRPPDSSYNSLYSTCLELFKFTIGMGDLEFTENYDFKAVFIILLLAYVILTYILLLNMLIALMGETVNKIAQESKNIWKLQRAITILDTEKSFLKCMRKAFRSGKLLQVGYTPDGKDDYRWCFRVDEVNWTTWNTNVGIINEDPGNCEGVKRTLSFSLRSSRVSGRHWKNFALVPLLREASARDRQSAQPEEVYLRQFSGSLKPEDAEVFKSPAASGEKVPVNSGGGGS
notes: whole, on cells; BRET donor fusion, Luc at the C-terminus of TRPV1; transiently expressed in live HEK293T cells; also called hTRPV1-Luc; not shown: Renilla Luciferase II (Luc, Luc2, a mutant of Renilla reniformis luciferase)
On to B1, for which the binding result was “binds”.

Source of the values: patent publication US20190353647A1 (UNIVERSITE DE BORDEAUX, published 2019).
